According to patent publication US20160122395A1, “Immunogenic compositions and a process for producing same” (THE […] INSTITUTE FOR MEDICAL RESEARCH AND PUBLIC HEALTH LTD, priority 2013, published 2016):

Tests used:
[1] = biological target: HIV-1 AD8 gp120, wild type (HIV-1 (AD8 strain)); test: 35S pulse-chase labelling, immunoprecipitation, gp120-shedding index
[2] = biological target: HIV-1 AD8 Env ΔN139INN/K601N (HIV-1 (AD8 strain)); test: cell-based or functional assay
[3] = biological target: HIV-1 AD8 envelope glycoprotein (Env), wild type (HIV-1 (AD8 strain)); test: cell-based or functional assay
HIV-1 = details: monotherapy, HIV-1 infected individuals; cited from earlier work
[4] = biological target: HIV-1 AD8 gp120 T138N (HIV-1 (AD8 strain)); test: 35S pulse-chase labelling, immunoprecipitation, gp120-shedding index
HIV-1AD8 WL/KH virus = test: Neutralization assay in TZM-bl cells, WL/KH virus; type: cell-based
HIV-1AD8 WL/KH/DE virus = test: Neutralization assay in TZM-bl cells, WL/KH/DE virus; type: cell-based

HIV-1 AD8 gp41 K601N
gp120 shedding into culture supernatant, fold with respect to WT [1]: 4.4 fold

C34 fusion inhibitor peptide
IC50, inhibition of Env-mediated cell-cell fusion by C34 (luciferase) [2]: 100 nM | IC50, inhibition of Env-mediated cell-cell fusion by C34 (luciferase) [3]: 100 nM

Ibalizumab: αCD4bs antibody used as monotherapy of HIV-1 infected individuals
viral load (HIV-1): transient drop in viral load to nadir levels followed by a rebound in viral titre

HIV-1 AD8 gp41 K601D
gp120 shedding into culture supernatant, fold with respect to WT [1]: 6.8 fold | improvement of gp120-gp41 association, fold with respect to K601D [4]: 2 fold

maraviroc
neutralization compared to the WT (HIV-1AD8 WL/KH virus): to similar extents | neutralization compared to the WT (HIV-1AD8 WL/KH/DE virus): to similar extents
